Experimental data as given in PMC3229523, “Identification of Lactoferricin B Intracellular Targets Using an Escherichia coli Proteome Chip” (PLoS ONE, 2011).
Ends that are not written are not given here. * marks the point of attachment. Biotin = O=C1N[C@H]2[C@H](CS[C@H]2CCCCC(=O)*)N1

Tests used:
Experiment in all cases: peptide or protein array; E. coli proteome chip: purified His-tagged proteins printed in duplicate on Fullmoon slides, blocked with 1% BSA; 10 nM N-terminal biotinylated LfcinB with 1% BSA, room temperature, 1 h; detected with DyLight 649-labeled streptavidin, ratio to DyLight 549-labeled anti-His antibody; ProCAT normalisation, local cut-off; triplicate chips
Settings in all cases: both partners purified
HolC = biological target: T1, HolC (E. coli K-12, UniProt P28905 1-147)
T1 construct: HolC, E. coli K-12
T1 sequence (P28905 whole entry): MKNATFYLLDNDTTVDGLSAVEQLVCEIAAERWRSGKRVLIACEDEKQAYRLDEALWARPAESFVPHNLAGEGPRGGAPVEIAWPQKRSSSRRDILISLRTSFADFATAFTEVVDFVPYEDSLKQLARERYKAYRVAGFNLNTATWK

YbbN = biological target: T2, YbbN (E. coli K-12, UniProt P77395 1-284)
T2 construct: YbbN, E. coli K-12
T2 sequence (looked up): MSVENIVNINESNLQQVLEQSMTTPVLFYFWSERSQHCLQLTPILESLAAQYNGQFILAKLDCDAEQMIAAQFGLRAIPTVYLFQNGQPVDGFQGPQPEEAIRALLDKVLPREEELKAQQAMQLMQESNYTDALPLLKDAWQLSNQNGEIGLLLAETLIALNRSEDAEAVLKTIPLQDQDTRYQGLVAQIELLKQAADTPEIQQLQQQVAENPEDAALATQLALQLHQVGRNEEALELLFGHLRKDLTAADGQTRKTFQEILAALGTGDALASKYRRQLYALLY

CaiA = biological target: T3, CaiA (E. coli K-12, UniProt P60584 1-380)
T3 construct: CaiA, E. coli K-12
T3 sequence (looked up): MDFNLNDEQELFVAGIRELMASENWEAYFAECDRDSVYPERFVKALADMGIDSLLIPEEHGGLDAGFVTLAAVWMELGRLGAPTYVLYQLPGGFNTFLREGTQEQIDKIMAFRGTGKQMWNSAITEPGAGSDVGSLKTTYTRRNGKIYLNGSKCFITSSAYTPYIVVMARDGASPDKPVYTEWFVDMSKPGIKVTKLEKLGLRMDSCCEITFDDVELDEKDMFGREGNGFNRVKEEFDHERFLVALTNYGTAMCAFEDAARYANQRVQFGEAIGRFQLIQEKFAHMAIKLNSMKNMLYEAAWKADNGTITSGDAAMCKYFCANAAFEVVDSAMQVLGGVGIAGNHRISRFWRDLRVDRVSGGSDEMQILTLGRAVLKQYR

CreB = biological target: T4, CreB (E. coli K-12, UniProt P08368 1-229)
T4 construct: CreB, E. coli K-12
T4 sequence (looked up): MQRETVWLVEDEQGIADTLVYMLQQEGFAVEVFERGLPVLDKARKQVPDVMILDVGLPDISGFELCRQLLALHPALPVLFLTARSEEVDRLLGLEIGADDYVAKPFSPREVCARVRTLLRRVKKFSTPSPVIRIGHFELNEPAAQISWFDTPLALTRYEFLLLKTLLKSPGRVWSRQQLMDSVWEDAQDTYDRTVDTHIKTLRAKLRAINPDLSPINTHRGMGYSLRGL

YhjH = biological target: T5, YhjH (E. coli K-12, UniProt P37646 1-255)
T5 construct: YhjH, E. coli K-12
T5 sequence (looked up): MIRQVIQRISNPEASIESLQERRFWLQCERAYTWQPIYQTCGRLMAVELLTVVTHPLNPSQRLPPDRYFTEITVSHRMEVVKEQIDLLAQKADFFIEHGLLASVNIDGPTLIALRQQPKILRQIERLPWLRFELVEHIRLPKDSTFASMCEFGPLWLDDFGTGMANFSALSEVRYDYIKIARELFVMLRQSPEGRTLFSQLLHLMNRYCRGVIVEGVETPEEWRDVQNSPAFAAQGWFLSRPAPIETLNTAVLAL

YhaJ = biological target: T6, YhaJ (E. coli K-12, UniProt P67660 1-298)
T6 construct: YhaJ, E. coli K-12
T6 sequence (looked up): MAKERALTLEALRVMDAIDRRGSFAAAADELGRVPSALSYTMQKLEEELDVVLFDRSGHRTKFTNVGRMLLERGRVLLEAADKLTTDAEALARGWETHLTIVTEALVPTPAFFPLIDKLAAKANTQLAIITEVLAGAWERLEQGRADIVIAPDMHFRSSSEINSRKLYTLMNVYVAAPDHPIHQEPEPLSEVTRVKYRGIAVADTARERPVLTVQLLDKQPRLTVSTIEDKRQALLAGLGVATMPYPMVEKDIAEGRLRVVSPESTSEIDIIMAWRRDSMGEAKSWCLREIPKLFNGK

Measured: binding result

B1: N-terminal biotinylated Lactoferricin B (peptide, UniProt P24627 36-60, looked up)
peptide: Biotin-FKCRRWQWRMKKLGAPSITCVRRAF
modifications: ends and bridges not checked
notes: lactoferricin B (LfcinB), cationic antimicrobial peptide of 25 amino acids; also called biotinylated LfcinB; biotin-labeled LfcinB; source: bought: Kelowna Inc
binds: HolC | YbbN | CaiA | CreB | YhjH | YhaJ
